This passage reports self-cleavage results from the RNAGym collection of RNA variant scans (doi:10.7554/elife.80360).

Sequences and labels used below:
B1: Hairpin Ribozyme (parent)
chain: GUCCUCUUUCACGUGCGCGUGAAAGAGAGAAGUGAACCAGAGAAACACACGUUGUGGUAUAUUACCUGGUA

In the data set the parent is B1. Description: self-cleavage, relative activity (ratio to wild type); higher = more cleavage; co-transcriptional.
Regarding GUCCUCUUUCACGGGCGCGUGAAAGAGAGAGGUGAACCAGAGAAACACACGUUGUGGUAUAUUACCUGGUA [U14G A31G], the self-cleavage was 0.693.

Take GUCCUCUUUCACGUACGCGUGAAAGAGAGAAGUGAACCAGCGAAACACACGUUGUGGUAUAUUACCUGGUA [G15A A41C]: the self-cleavage was 1.08. On to GUCCUCUUUCACGGUCGCGUGAAAGAGAGAAGUGAACCAGAGAAACACACGUUGUGGUAUAUUACCUGGUA [U14G G15U], for which the self-cleavage turned out to be 0.796. Regarding GUCCUCUUUCACGGGCGCGUGAAAGAGAGAAGUGAACCAGAGAAACACACGUUGUGGCAUAUUACCUGGUA [U14G U58C], the self-cleavage amounted to 0.881. Turning to GUCCUCUUUCACGUACGCGUGAAAGAGAGAAGUGAACCAGAGAGACACACGUUGUGGUAUAUUACCUGGUA [G15A A44G], the self-cleavage was determined as 0.139. The result for GUCCUCUUUCACGUACGCGUGAAAGAGAGAAGUGAACCAGAGAAACAUACGUUGUGGUAUAUUACCUGGUA [G15A C48U] reads 0.0998; that for GUCCUCUUUCACGUACGCGUGAAAGAGAGAAGUGAACCAGAGAAACAAACGUUGUGGUAUAUUACCUGGUA [G15A C48A], 0.133. For GUCCUCUUUCACGGGCGCGUGAAAGAGAGAAGUGAACAAGAGAAACACACGUUGUGGUAUAUUACCUGGUA [U14G C38A], the self-cleavage was found to be 0.17. As for GUCCUCUUUCACGGGCGCGUGAAAGAGAGAAGUGAACUAGAGAAACACACGUUGUGGUAUAUUACCUGGUA [U14G C38U], the figure is 0.345; as for GUCCUCUUUCACGUACGCGUGAAAGAGAGAAGUGAACCAGAGAAACACACGUUGUGGUAUAUUGCCUGGUA [G15A A64G], 0.528; as for GUCCUCUUUCACGGGCGCGUGAAAGAGAGAAGUGAACCAGAGAAACACACGUUGUGGUAUAUUACCUGGUG [U14G A71G], 0.883. Consider GUCCUCUUUCACGGGCGCGUGAAAGAGAGAAGUGAACCAGAGAAACACACGUUGUGGUAUAUUACCUGGUC [U14G A71C], for which the self-cleavage worked out at 1.11. Regarding GUCCUCUUUCACGGGCGCGUGAAAGAGAGAAGUGAACCAGAGAAACACACGUUGUGGUAUAUUACCUCGUA [U14G G68C], the self-cleavage came to 0.0739. For GUCCUCUUUCACGUACGCGUGAAAGAGAGAAGUGAACCAGAGAAACACAGGUUGUGGUAUAUUACCUGGUA [G15A C50G], the self-cleavage amounted to 0.219. As to GUCCUCUUUCACGUACGCGUGAAAGAGAGAAGUGAACCAGAGAAACACAAGUUGUGGUAUAUUACCUGGUA [G15A C50A], the self-cleavage was determined as 0.28.

Take GUCCUCUUUCACGGGCGCGUGAAAGAGAGAAGUGAACCGGAGAAACACACGUUGUGGUAUAUUACCUGGUA [U14G A39G]: the self-cleavage stood at 0.227. As for GUCCUCUUUCACGGGCGCGUGAAAGAGAGAAGUGAACCAGAGAAACACACGUUGUUGUAUAUUACCUGGUA [U14G G56U], the self-cleavage is 0.122. The result for GUCCUCUUUCACGUACGCGUGAAAGAGAGAAGUGAACCAGAGAAACACACGUUGUGGUAUCUUACCUGGUA [G15A A61C] reads 0.161; that for GUCCUCUUUCACGUACGCGUGAAAGAGAGAAGUGAACCAGAGAAACACACGUUGUGGUAUUUUACCUGGUA [G15A A61U], 0.283. The result for GUCCUCUUUCACGGGCGCGUGAAAGACAGAAGUGAACCAGAGAAACACACGUUGUGGUAUAUUACCUGGUA [U14G G27C] reads 0.0943; that for GUCCUCUUUCACGGGCGCUUGAAAGAGAGAAGUGAACCAGAGAAACACACGUUGUGGUAUAUUACCUGGUA [U14G G19U], 0.893.

For GUCCUCUUUCACGGGCGCGUGAAAGAGAGAAGUGAACCAGAGAAACACACGUUGUGAUAUAUUACCUGGUA [U14G G57A], the self-cleavage is 0.146. As for GUCCUCUUUCACGGGCGCGUGAAAGAGAGAAGUGAACCAGAGAAACACACGUUGUGGUAUAUGACCUGGUA [U14G U63G], the self-cleavage came out at 0.153. The result for GUCCUCUUUCACGGGCGCGUGAAAGAGAGAAGUGAACCAGAGAAACACACGUUGUGGUAUAUCACCUGGUA [U14G U63C] reads 0.175; that for GUCCUCUUUCACGGGCGCGUGAAAGAGAGAAGUGAACCAGAGAAACACACGUUGUGGUAAAUUACCUGGUA [U14G U60A], 0.641; that for GUCCUCUUUCACGGGCGCGUGAAAGAGAGAAGUGAACCAGAGAAACACACGUUGUGGUAGAUUACCUGGUA [U14G U60G], 0.58.

Consider GUCCUCUUUCACGUACGAGUGAAAGAGAGAAGUGAACCAGAGAAACACACGUUGUGGUAUAUUACCUGGUA [G15A C18A], for which the self-cleavage came to 1.09. The result for GUCCUCUUUCACGUACGCGUGAAAGAGAGCAGUGAACCAGAGAAACACACGUUGUGGUAUAUUACCUGGUA [G15A A30C] reads 0.141. As for GUCCUCUUUCACGUACGCGUGAAAGAGAGUAGUGAACCAGAGAAACACACGUUGUGGUAUAUUACCUGGUA [G15A A30U], the figure is 0.109; as for GUCCUCUUUCACGUACGCGUGAAAGGGAGAAGUGAACCAGAGAAACACACGUUGUGGUAUAUUACCUGGUA [G15A A26G], 0.835.

Take GUCCUCUUUCACGUACGCGUGAAAGUGAGAAGUGAACCAGAGAAACACACGUUGUGGUAUAUUACCUGGUA [G15A A26U]: the self-cleavage was 0.638. GUCCUCUUUCACGGGCGCGUGAAAAAGAGAAGUGAACCAGAGAAACACACGUUGUGGUAUAUUACCUGGUA [U14G G25A]: the self-cleavage was determined as 0.384. Take GUCCUCUUUCACGUACGCGUGAAAGAGAGAAGUGAACCAGAGAAAUACACGUUGUGGUAUAUUACCUGGUA [G15A C46U]: the self-cleavage was determined as 0.147. As to GUCCUCUUUCACGGGCGCGUGAAAGAGAGAAGUGAACCAGAGACACACACGUUGUGGUAUAUUACCUGGUA [U14G A44C], the self-cleavage was 0.218. The result for GUCCUCUUUCACGGGCGCGUGAAAGAGAGAAGUGAACCAGAGAGACACACGUUGUGGUAUAUUACCUGGUA [U14G A44G] reads 0.0802; that for GUCCUCUUUCACGUACGCGUGAAAGAGAGAAGUGAACCAGAGAAACACACGUUGUGGUGUAUUACCUGGUA [G15A A59G], 0.111; that for GUCCUCUUUCACGGGCGCGUGAAAGAGAGAAGUGAACCAGAGAAACACACGUUGUGGUAUAUUUCCUGGUA [U14G A64U], 0.07.

As to GUCCUCUUUCACGGGAGCGUGAAAGAGAGAAGUGAACCAGAGAAACACACGUUGUGGUAUAUUACCUGGUA [U14G C16A], the self-cleavage worked out at 0.681.
